Measurements published in patent US20120034651A1 (JAPAN SCIENCE AND TECHNOLOGY AGENCY, published 2012).

Molecular target: the molecule itself
Assay: not described in this filing

B1: 36-38A TCL1 (other, human, UniProt P56279 1-114, looked up)
chain: MAECPTLGEAVTDHPDRLWAWEKFVYLDEKQHAWLAAAIEIKDRLQLRVLLRREDVVLGRPMTPTQIGPSLLPIMWQLYPDGRYRSSDSSFWRLVYHIKIDGVEDMLLELLPDD
binding result: no binding
